This note sets out measurements from publication PMC5670123, “The structural basis of proton driven zinc transport by ZntB” (Nature Communications, 2017).

The data set deals with the molecule itself. As to the kind of experiment: cryo-EM structure; single-particle cryo-EM of DDM-solubilized, purified EcZntB pre-treated with EDTA (apo), ~10 mg/ml, 50 mM Tris/HCl pH 8.0, 250 mM NaCl, 0.03% DDM; overall resolution 4.2 Å.

B1: ZntB from Escherichia coli, full-length (natural protein, UniProt P64423 1-327, looked up)
chain: MEAIKGSDVNVPDAVFAWMLDGRGGVKPLENTDVIDEAHPCWLHLNYVHHDSAQWLATTPLLPNNVRDALAGESTRPRVSRLGEGTLITLRCINGSTDERPDQLVAMRVYMDGRLIVSTRQRKVLALDDVVSDLEEGTGPTDCGGWLVDVCDALTDHSSEFIEQLHDKIIDLEDNLLDQQIPPRGFLALLRKQLIVMRRYMAPQRDVYARLASERLPWMSDDQRRRMQDIADRLGRGLDEIDACIARTGVMADEIAQVMQENLARRTYTMSLMAMVFLPSTFLTGLFGVNLGGIPGGGWQFGFSIFCILLVVLIGGVALWLHRSKWL
notes: Zinc transporter ZntB of Escherichia coli (CorA metal ion transporter family), full-length; Homopentamer in DDM micelles, apo (pre-treated with EDTA); TEV protease (ProTev Plus) is described only for the proteoliposome transport assay, not for the cryo-EM sample; also called EcZntB; source: membrane vesicles solubilized in DDM, purified (Ni2+-sepharose, EDTA treatment, Superdex 200 SEC)
On to B1, for which the “stoichiometry N” value was determined as 5.
